The labels stand for the following.
B1: CPEB3 Ribozyme (parent)
chain: GGGGGCCACAGCAGAAGCGUUCACGUCGCGGCCCCUGUCAGAUUCUGGUGAAUCUGCGAAUUCUGCUGU

Consider 39 variants from the RNAGym collection of RNA variant scans (doi:10.7554/elife.80360).

In the series the parent is B1. Kind of series: self-cleavage, relative activity (ratio to wild type); higher = more cleavage; co-transcriptional.
As for CGGGGCCACAGCAGAAGCCUUCACGUCGCGGCCCCUGUCAGAUUCUGGUGAAUCUGCGAAUUCUGCUGU [G1C G19C], the self-cleavage was 0.126.

With CGGGGCCACAGCAGAAGCUUUCACGUCGCGGCCCCUGUCAGAUUCUGGUGAAUCUGCGAAUUCUGCUGU [G1C G19U], the self-cleavage came out at 0.166.

Consider CGGGGCCACAGCAGAAGCGUUCACGUCGCGGCCCCUGUCAGAUUCUGGUGAAUCUGCGAAUUCUACUGU [G1C G65A], for which the self-cleavage was determined as 0.134.

For CGGGGCCACAGCAGAAGCGUUCACGUCGCGGCCCCUGUCAGAUUCUGGUGAAUCUGCGAAUUCUCCUGU [G1C G65C], the self-cleavage was found to be 0.174.

Regarding CGGGGCCACAGCAGAAGCGUUCACGUCGCGGCCCCUGUCAGAUUCUGGUGAAUCUUCGAAUUCUGCUGU [G1C G56U], the self-cleavage was 0.224.

For AGGGGCCACAGCAGAAGCGUUCACGUCGCGGCCCCUGUCAGAUGCUGGUGAAUCUGCGAAUUCUGCUGU [G1A U44G], the self-cleavage worked out at 0.0722.

Regarding CGGGGCCACAGCAGAAGCGUUCACGUCACGGCCCCUGUCAGAUUCUGGUGAAUCUGCGAAUUCUGCUGU [G1C G28A], the self-cleavage was determined as 0.102.

Turning to CGGGGCCACAGCAGACGCGUUCACGUCGCGGCCCCUGUCAGAUUCUGGUGAAUCUGCGAAUUCUGCUGU [G1C A16C], the self-cleavage was determined as 0.161.

Take CGGGGCCACAGCAGAAGGGUUCACGUCGCGGCCCCUGUCAGAUUCUGGUGAAUCUGCGAAUUCUGCUGU [G1C C18G]: the self-cleavage amounted to 0.0551.

With CGGGGCCACAGCAGAAGAGUUCACGUCGCGGCCCCUGUCAGAUUCUGGUGAAUCUGCGAAUUCUGCUGU [G1C C18A], the self-cleavage was 0.035.

In the case of CGGGGCCACAGCAGAAGUGUUCACGUCGCGGCCCCUGUCAGAUUCUGGUGAAUCUGCGAAUUCUGCUGU [G1C C18U], the self-cleavage stood at 0.167.

Take CGGGGCCACAGCAGAAGCGAUCACGUCGCGGCCCCUGUCAGAUUCUGGUGAAUCUGCGAAUUCUGCUGU [G1C U20A]: the self-cleavage was found to be 0.0802.

Take AGGGGCCACAGCAGAAGCGUUCACGUCGCGGCCCCUGUCAGAUUCUGGUCAAUCUGCGAAUUCUGCUGU [G1A G50C]: the self-cleavage worked out at 0.115.

Take CGGGGCCACAGCAGAAGCGUUCACGUCGCGGCCCCUGUCAGAUUCUGGUGAAUCUGCGAUUUCUGCUGU [G1C A60U]: the self-cleavage came out at 0.179.

For the variant AGGGGCCACAGCAGAAGCGUUCACGUCGCGGCCCCUGUCAGAUUCUGGUGAAUCGGCGAAUUCUGCUGU [G1A U55G], the self-cleavage was 0.0876.

For CGGGGCCACAGCAGAAGCGUUCACGUCGCGGCCCCUGUCAGAUUCUGGAGAAUCUGCGAAUUCUGCUGU [G1C U49A], the self-cleavage amounted to 0.287.

Consider AGGGGCCACAGCAGAAGCGUUCACGUCGCGGCCCCUGUCAGAUUCUGCUGAAUCUGCGAAUUCUGCUGU [G1A G48C], for which the self-cleavage came to 0.142.

On to AGGGGCCACAGCAGAAGCGUUCACGUCGCGGCCCCUGUCAGAUUCUGGUGAAUCUGCGAAAUCUGCUGU [G1A U61A], for which the self-cleavage amounted to 0.0967.

For the variant AGGGGCCACAGCAGAAGCGUUCACGUCGCGGCCCCUGUCAGAUUCUGGUGAAUCUGCGAAGUCUGCUGU [G1A U61G], the self-cleavage was 0.15.

For CGGGGCCACAGCAGAAGCGUUCACGUCGCGGCCCCUGUCAGAUUCUGGUGAACCUGCGAAUUCUGCUGU [G1C U53C], the self-cleavage came to 0.0726.

For the variant AGGGGCCACAGCAGAAGCGUUCACGUCGCGGCCCCUGUCAGAUUCUGGUGAAUCUGCUAAUUCUGCUGU [G1A G58U], the self-cleavage worked out at 0.0885.

For the variant CGGGGCCACAGCAGAAGCGUUCACGUCGCGGCCCCUGACAGAUUCUGGUGAAUCUGCGAAUUCUGCUGU [G1C U38A], the self-cleavage came to 0.267.

For the variant CGGGGCCACAGCAGAAGCGUUUACGUCGCGGCCCCUGUCAGAUUCUGGUGAAUCUGCGAAUUCUGCUGU [G1C C22U], the self-cleavage was found to be 0.0706.

As to CGGGGCCACAGCAGAAGCGUUCACGUCGCGGCCCCUGUCAGAUUCUGGUGAAUCUGCGAAUUGUGCUGU [G1C C63G], the self-cleavage was 0.201.

Regarding CGGGGCCACAGCAGAAGCGUUCACGUCGCGGCCCCUGUCAGAUUCUGGUAAAUCUGCGAAUUCUGCUGU [G1C G50A], the self-cleavage worked out at 0.224.

For CGGGGCCACAGCAGAAGCGUUCACGUCGCGGCCCCUGUCAGAUUCUGGUCAAUCUGCGAAUUCUGCUGU [G1C G50C], the self-cleavage came out at 0.145.

On to CGGGGCCACAGCAGAAGCGUUCACGUCGAGGCCCCUGUCAGAUUCUGGUGAAUCUGCGAAUUCUGCUGU [G1C C29A], for which the self-cleavage came out at 0.168.

For AGGGGCCACAGCAGAAGCGUUCACGUCGCGGCCCCUGUCAGAUUCUGGUGAAACUGCGAAUUCUGCUGU [G1A U53A], the self-cleavage turned out to be 0.0419.

In the case of AGGGGCCACAGCAGAAGCGUUCACGUCGCGGCCCCUGUCAGAUUCUGGUGAACCUGCGAAUUCUGCUGU [G1A U53C], the self-cleavage was 0.0532.

With AGGGGCCACAGCAGAAGCGUUCACGUCGCGGCCCCUGUCAGAUUCUGGUGAAGCUGCGAAUUCUGCUGU [G1A U53G], the self-cleavage was 0.0671.

As for CGGGGCCACAGCACAAGCGUUCACGUCGCGGCCCCUGUCAGAUUCUGGUGAAUCUGCGAAUUCUGCUGU [G1C G14C], the self-cleavage was determined as 0.152.

With AGGGGCCACAGCAGAAGCGUUCACGUCGCGGCCCCUGUCAGAUUCUGGCGAAUCUGCGAAUUCUGCUGU [G1A U49C], the self-cleavage turned out to be 0.0571.

Regarding CGGGGCCACAGCAGAAGCGUUCACGUCGCGGCCCCUGUCAUAUUCUGGUGAAUCUGCGAAUUCUGCUGU [G1C G41U], the self-cleavage is 0.193.

On to CGGGGCCACAGCAGAAGCGUUCACGUCGCGGCCCCUGUCAGAUUCUGGUGAAUCUGUGAAUUCUGCUGU [G1C C57U], for which the self-cleavage amounted to 0.07.

As to CGGGGCCACAGCAGAAGCGUUCACGUCGCGGCCCCUGUCAGAUUCUGGUGAAUCUGCGAAUUCUGGUGU [G1C C66G], the self-cleavage amounted to 0.248.

In the case of CGGGGCCAAAGCAGAAGCGUUCACGUCGCGGCCCCUGUCAGAUUCUGGUGAAUCUGCGAAUUCUGCUGU [G1C C9A], the self-cleavage came to 0.251.

As to CGGGGCCACAGCAGAAGCGUUCACGUCGCGGCCCCUGUCAGUUUCUGGUGAAUCUGCGAAUUCUGCUGU [G1C A42U], the self-cleavage turned out to be 0.2.

Regarding CGCGGCCACAGCAGAAGCGUUCACGUCGCGGCCCCUGUCAGAUUCUGGUGAAUCUGCGAAUUCUGCUGU [G1C G3C], the self-cleavage stood at 0.0906.

For the variant CGGGGCCACAGCAGAAGCGUUCACGUCGCGGGCCCUGUCAGAUUCUGGUGAAUCUGCGAAUUCUGCUGU [G1C C32G], the self-cleavage turned out to be 0.148.
